How the values were obtained:
[1] = molecular target: T1, ErbB3-mFc (human); assay: blocking ELISA: antibody (0-50 nM) + 50 pM ErbB3-mFc, binding to coated neuregulin1b
T1 construct: Dimeric soluble ErbB3; also called hErbB3.mFc
T1 chain: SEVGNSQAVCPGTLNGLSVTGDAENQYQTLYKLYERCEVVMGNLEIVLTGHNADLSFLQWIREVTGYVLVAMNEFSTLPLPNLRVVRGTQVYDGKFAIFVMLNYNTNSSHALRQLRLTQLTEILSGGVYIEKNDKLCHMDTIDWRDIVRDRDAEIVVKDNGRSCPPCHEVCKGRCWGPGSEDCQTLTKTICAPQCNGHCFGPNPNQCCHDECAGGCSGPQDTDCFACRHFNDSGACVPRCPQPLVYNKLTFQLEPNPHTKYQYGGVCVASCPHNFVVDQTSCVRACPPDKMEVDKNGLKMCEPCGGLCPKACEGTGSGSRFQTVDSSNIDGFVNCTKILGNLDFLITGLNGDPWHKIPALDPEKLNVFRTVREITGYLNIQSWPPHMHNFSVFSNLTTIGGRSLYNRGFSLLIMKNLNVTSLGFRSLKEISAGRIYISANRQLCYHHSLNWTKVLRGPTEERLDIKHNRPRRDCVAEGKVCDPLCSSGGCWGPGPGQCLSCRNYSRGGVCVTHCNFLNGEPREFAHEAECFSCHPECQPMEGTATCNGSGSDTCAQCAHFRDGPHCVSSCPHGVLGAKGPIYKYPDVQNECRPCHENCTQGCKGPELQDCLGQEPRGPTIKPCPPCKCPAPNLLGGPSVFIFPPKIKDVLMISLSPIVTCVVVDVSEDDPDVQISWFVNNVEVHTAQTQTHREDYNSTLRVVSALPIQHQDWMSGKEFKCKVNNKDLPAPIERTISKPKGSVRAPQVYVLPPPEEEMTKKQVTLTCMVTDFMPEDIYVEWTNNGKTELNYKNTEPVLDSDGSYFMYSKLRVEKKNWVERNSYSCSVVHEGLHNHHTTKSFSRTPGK
Text: To further characterize anti-hErbB3 mAbs of the present invention, their ability to block ligand binding was examined via ELISA. […] Plates were washed and non-sequestered (plate bound) ErbB3 was detected with an anti-Fc poly conjugated with horseradish peroxidase (HRP). Plates were developed with TMB (3,3′,5,5′-tetramethylbenzidine) and neutralized with sulfuric acid before reading absorbance at 450 nm on a Victor X5 plate reader. Data analysis used a sigmoidal dose-response model within Prism™ software. […] Maximal blocking for each antibody was calculated by taking the difference in absorbance from zero to 50 nM antibody on the inhibition curve, divided by the difference in absorbance from 50 pM to zero ErbB3 on the dose curve.

[2] = molecular target: T2, hErbB3.mFc (soluble dimeric human ErbB3 extracellular domain fused to mouse Fc) (human); assay: SPR (Biacore), 25 C, mAb capture format
T2 construct: called dimeric
T2 chain: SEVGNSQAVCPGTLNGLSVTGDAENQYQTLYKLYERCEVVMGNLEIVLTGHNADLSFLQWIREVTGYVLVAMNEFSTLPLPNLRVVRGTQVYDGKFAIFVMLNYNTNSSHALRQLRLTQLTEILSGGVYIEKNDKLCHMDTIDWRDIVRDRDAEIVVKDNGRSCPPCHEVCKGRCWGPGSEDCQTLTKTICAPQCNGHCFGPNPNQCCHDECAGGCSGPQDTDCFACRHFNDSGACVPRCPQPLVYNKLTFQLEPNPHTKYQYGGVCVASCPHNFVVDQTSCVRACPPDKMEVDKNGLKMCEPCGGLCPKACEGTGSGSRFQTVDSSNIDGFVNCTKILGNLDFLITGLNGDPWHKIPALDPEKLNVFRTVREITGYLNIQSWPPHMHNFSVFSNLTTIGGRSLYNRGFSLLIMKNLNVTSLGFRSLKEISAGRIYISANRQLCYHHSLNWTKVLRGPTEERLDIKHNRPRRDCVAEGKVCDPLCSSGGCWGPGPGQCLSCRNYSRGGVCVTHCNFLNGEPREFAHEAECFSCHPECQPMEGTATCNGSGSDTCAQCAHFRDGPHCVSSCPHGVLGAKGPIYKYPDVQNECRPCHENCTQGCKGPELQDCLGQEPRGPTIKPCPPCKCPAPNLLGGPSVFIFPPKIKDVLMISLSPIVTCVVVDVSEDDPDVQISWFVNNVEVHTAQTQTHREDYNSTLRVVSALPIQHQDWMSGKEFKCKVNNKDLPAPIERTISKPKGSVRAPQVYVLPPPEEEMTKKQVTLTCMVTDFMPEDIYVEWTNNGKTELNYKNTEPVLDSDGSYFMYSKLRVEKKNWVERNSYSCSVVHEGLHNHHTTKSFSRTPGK
Description: (§1) (Tables 2-4). Measurements were conducted on a Biacore 2000 or T100 instrument. […] Kinetic association (kₐ) and dissociation (kd) rate constants were determined by processing and fitting the data to a 1:1 binding model using Scrubber 2.0 curve fitting software.

[3] = molecular target: hErbB3.mmh (soluble monomeric human ErbB3 extracellular domain with C-terminal myc-myc-hexahistidine tag) (human, UniProt P21860 20-642); assay: SPR (Biacore), 25 C, mAb capture format
Description: as §1

Binder | IC50 [1] [pM] | Maximal Blocking (%) [1] [%] | Kd [2] [pM] | T½ [2] [h] | koff [2] [s⁻¹] | kon [2] [M⁻¹ s⁻¹] | Kd [3] [pM] | T½ [3] [h] | koff [3] [s⁻¹] | kon [3] [M⁻¹ s⁻¹]
H4H1819N (antibody, human IgG4, V domains shown, Human IgG4 Fc (prefix H4H)) VH: EVQLVESGGGVVRPGGSLRLSCAASGFTFDDYAMHWVRQAPGKGLEWVAGISWNSGSIDYADSVKGRFTISRDNAKNSLYLQMNSLRAGDTALYYCAKDILDLDYYGLDVWGQGTTVTVSS VL: DIQMTQSPSSLSASVGDRVTITCRASQDISSYLAWYQQKPGKVPNLLIYDASSLQSGVPSRFSGSGSGTDFTLTLSSLQPEDFASYYCQNYNSAPYTFGQGTKLEIK | 20 | 99 |  |  |  |  |  |  |  | 
H4H2290P (antibody, V domains shown, Fully human, human IgG4 Fc (H4H prefix)) VH: EVQLLESGGGLVQPGGSLRLSCVASGFTFSSFAMSWVRQAPGKGLEWVSVISGSGGSTNHADSVRGRFTISRDNSLNTVYLQMHSLRAEDTALYYCVKAETSSSYFYYGMDVWGQGTTVTVSS VL: DIQLTQSPSFLSASVGDRVTITCWASQDISSYLAWYQQKPGKVPNLLIYGASSLQPGVPSRFSGSGSGTEFTLTISSLQPEDFATYYCQQLNNYPTFGGGTKLEIKR |  |  | 14 | 15.8 | 1.13e-05 | 800000 | 115 | 2.65 | 6.72e-05 | 582000
H4H2084P (antibody, human IgG4, V domains shown, Human IgG4 Fc (prefix H4H)) VH: QVQLVESGGGVVQSGKSLRLSCVASGFTFSNYGMHWVRQTPGKGLEWVARIWFDGTNKYYTDSVKGRFTLSRDSSKNTLYLQMNSLRAEDTAVYFCAREESLELDHYVMDVWGQGTTVTVSS VL: AIQMTQSPSSLSASVGDRVTITCRASQDIRDDLGWFQQKPGKAPNLLIYAASSLQSGVPSRFSGSGSGTDFTLTISSLQPEDFATYYCLQDYNYPLTFGGGTKVEIKR | 87.3 | 95 |  |  |  |  |  |  |  | 
H4H2148P (antibody, V domains shown, Fully human, human IgG4 Fc (H4H prefix)) VH: EVQLVESGGGLVHPGRSLRLSCAASGFTFDDYAMHWVRQSPGKGLEWVSGISWNSVIKHSTDSVRGRFTISRDNAKNSLYLQMNSLKPEDTAFYYCAKDEDDWNYLDYWGQGTLVTVSS VL: DIQMTQSPSSVSASVGDRVTITCRASQDINSWLAWYQQKPGKAPKLLIYTSSNLQSGVPSRFSGSGSGTDFTLTISSLQPEDFATYYCQQSDSFPFTFGPGTKVDIKR |  |  | 0.295 | 102 | 1.74e-06 | 5.91e+06 | 8.71 | 5.12 | 3.47e-05 | 3.98e+06
H4H2154P (antibody, V domains shown, Fully human, human IgG4 Fc (H4H prefix)) VH: QVQLQESGPGLINPSQTLSVTCTVSGGSISSGGYYWTWIRQHPGKGLEWIGYISYSGNTNYNPSLKSRVTISVDTAKNQFSLKLSSVTAADTAVYFCARDSDVDTAMVDGIDIWGQGTMVTVSS VL: DIQMTQSPSSVSASVGDRVTITCRASQDISSWLAWYQQKPGRAPKLLIYTASSLQSGVPSRFSGSGSGTDFTLTISSLQPEDFATYFCQQANSFPFTFGPGTKVDIKR |  |  | 0.3 | 182 | 9.77e-07 | 3.25e+06 | 17.6 | 4.75 | 3.73e-05 | 2.13e+06
H4H2098P (antibody, human IgG4, V domains shown, Human IgG4 Fc (prefix H4H)) VH: QVQLVESGGGVVQPGRSLRLSCAASGFTFSSFGMHWVRQAPGKGLEWVAVIWYVEINKYHADSVKGRFTISRDDSKNTVYLQMNSLRAEDTAVYYCARDWNDGDYGMDVWGQGTTVTVSS VL: DIQLTQSPSFLSASVGDRVTITCWASQGISSFLAWYQQKAGKAPRLLIYAASTLQTGVPSRFSGSGSGTEFTLTISSLQPGDFATYHCQQLNSYPYTFGQGTKLEIKR | 135 | 95 |  |  |  |  |  |  |  | 
H4H2108P (antibody, human IgG4, V domains shown, Human IgG4 Fc (prefix H4H)) VH: EVQLLESGGDLVQPGGSLRLSCATSGFSFSSDAMNWVRQAPGKGLEWVSGISGSGGNTYYADSVKGRFTISRDISKSTLSLQMNSLRAEDTAVYYCAKEGTNMVRGVVMEDNGMDVWGQGTTVTVSA VL: DIQMTQSPSSVSASVGDRVTITCRASQGISDYLAWYQQKPGKAPKLLIYAASSLQSGVPSRFSGRGSGTDFTLTISTLQPEDFATYYCQQANSFPLTFGGGTKVDIKR | 116 | 91 |  |  |  |  |  |  |  | 
H4H1821N (antibody, human IgG4, V domains shown, Human IgG4 Fc (prefix H4H); In the H/D exchange experiment it was covalently attached to NHS agarose beads) VH: EVQLVESGGGLVQPGRSLRLSCAASGFTFDDYAMHWVRQAPGKGLEWVSSISWNSGSIGYADSVKGRFTISRDNAKNSLYLQMNSLKPEDTALYYCTKDTDYGDYLDAFDIWGQGTMVAVAS VL: not shown | 18 | 99 |  |  |  |  |  |  |  | 
H4H2092P (antibody, human IgG4, V domains shown, Human IgG4 Fc (prefix H4H)) VH: EVQLVESGGGVVRPGGSLRLSCAASGFTFEDYGMNWVRQVPGKGLEWVSGTNWNGGITGYTGSVKGRFTISRDNAKNSLYLQMNSLRAEDTALYHCARDSGDQDAFDIWGQGTMVTVSS VL: DIQLTQSPSFLSASVGDRVTITCWASQDISSYLAWYQQKPGKAPKLLIYAASTFQSGVPSRFSGSGSGTEFTLTISNLQPEDFATYYCQQLDSYPLSFGGGTKVEIKR | 59.4 | 100 |  |  |  |  |  |  |  | 
H4H2102P (antibody, human IgG4, V domains shown, Human IgG4 Fc (prefix H4H)) VH: EVQLVESGGGLVQPGGSLRLSCAASGFTFSNYDIHWVRQATGKGLEWVSAIGPAGDTYYSDSVKGRFTISREDAKNSLYLQMSSLRAGDTAVYYCASEGIAVRPDDYYGMDVWGQGTTVTVSA VL: DIQLTQSPSFLSASVGDRVTITCWASQDITSYLAWYQKKPGKAPKLLIYAASTLQSGVPSRFSGSGSGTEFTLTISSLQPEDFAAYYCQQLNSYPLTFGGGTKVDIKR | 186 | 90 |  |  |  |  |  |  |  | 
H4H2094P (antibody, human IgG4, V domains shown, Human IgG4 Fc (prefix H4H)) VH: EVQLVESGGGLVQPGGSLRLSCAASGFTFSSYDMHWVRQATGKGLEWVSAIGPAGDTYYPVSAMGRFTISRDDAKNSLYLQMNSLRAGDTAVYYCAREGVTIRPDDYFGLDVWGQGTTVTVSA VL: DIQLTQSPSFLSASVGDRVTITCWASQGISDYLAWYQKKPGKAPQLLIYAATTLQSGVPSRFSGSGSGTEFTLTISSLQPEDFATYYCQQLNTYPLTFGGGTKVEIKR | 90 | 92 |  |  |  |  |  |  |  | 
H4H2111P (antibody, human IgG4, V domains shown, Human IgG4 Fc (prefix H4H)) VH: QVQLVESGGGVVQPGRSLRLSCAASGFTFNNYGMHWVRQAPGKGLAWVAVMWYSESHKYYADSVKGRFTISRDNSKNTLYLEMNSLRVEDTAIYYCARDLGDPDAFDIWGQGTMVTVSS VL: DIQLTQSPSFLSASVGDRVTITCWASQGISSYLAWYQQKPGKAPKLLIYGASTLQSGVPSRFSGSGSGTEFTLTISSLQPEDFATYYCQQLNSYPLTFGGGTKVEIKR | 49.7 | 92 |  |  |  |  |  |  |  | 
H4H2151P (antibody, V domains shown, Fully human, human IgG4 Fc (H4H prefix)) VH: QVQLVESGGGVVQPGRSLRLSCAASGFTFSNYGMHWVRQAPGKGLEWVARIWYDGSNKYYADSVKGRFTISRDSSKNTLYLQMNSLRAEDTAVYYCAREGEQNLDYYPLDVWGQGTTVTVSS VL: DIVMTQSPSSLSASVGDRVTITCRASQDIRNDLGWYQQKPGKAPKLLIYAASSLQTGVPSRFSGSVSGTDFTLTISSLQPEDFATYYCLQDYTYPLTFGGGTKVEIK |  |  | 0.213 | 186 | 9.52e-07 | 4.48e+06 | 9.42 | 6.2 | 2.86e-05 | 3.04e+06
H4H2153P (antibody, V domains shown, Fully human, human IgG4 Fc (H4H prefix)) VH: QVQLVQSGAEVKKPGASVKVSCKASGYTFTRYGISWVRQAPGLGLEWMGWISAYDGYTNFAQKFQGRFTMTTDTSTNTAYMELRGLRSDDTAVYYCAREEEDAAFDIWGQGTMVTVSS VL: not shown |  |  | 0.337 | 143 | 1.24e-06 | 3.67e+06 | 11.7 | 5.18 | 3.43e-05 | 2.94e+06

From patent US20140072563A1 (Regeneron, published 2014)
